Measurements reported in article PMC4848090, “Mechanistic insight into a peptide hormone signaling complex mediating floral organ abscission” (eLife, 2016).
Non-standard residues stand in square brackets, D forms with d. No end group written: not given here. Hyp = O=C(O)[C@@H]1C[C@@H](O)CN1

B2: Arabidopsis thaliana HAESA ectodomain (residues 20–620) (domain or fragment)
chain: SLNQDATILRQAKLGLSDPAQSLSSWSDNNDVTPCKWLGVSCDATSNVVSVDLSSFMLVGPFPSILCHLPSLHSLSLYNNSINGSLSADDFDTCHNLISLDLSENLLVGSIPKSLPFNLPNLKFLEISGNNLSDTIPSSFGEFRKLESLNLAGNFLSGTIPASLGNVTTLKELKLAYNLFSPSQIPSQLGNLTELQVLWLAGCNLVGPIPPSLSRLTSLVNLDLTFNQLTGSIPSWITQLKTVEQIELFNNSFSGELPESMGNMTTLKRFDASMNKLTGKIPDNLNLLNLESLNLFENMLEGPLPESITRSKTLSELKLFNNRLTGVLPSQLGANSPLQYVDLSYNRFSGEIPANVCGEGKLEYLILIDNSFSGEISNNLGKCKSLTRVRLSNNKLSGQIPHGFWGLPRLSLLELSDNSFTGSIPKTIIGAKNLSNLRISKNRFSGSIPNEIGSLNGIIEISGAENDFSGEIPESLVKLKQLSRLDLSKNQLSGEIPRELRGWKNLNELNLANNHLSGEIPKEVGILPVLNYLDLSSNQFSGEIPLELQNLKLNVLNLSYNHLSGKIPPLYANKIYAHDFIGNPGLCVDLDGLCRKITRSK
modifications: N-glycans (glycoprotein of ~75 kDa)

Legend:
[1] = target: B2; assay: ITC
[2] = target: T1, Arabidopsis thaliana HAESA ectodomain (residues 20–620) (Arabidopsis thaliana, UniProt P47735 20-620, N-glycans (glycoprotein of ~75 kDa)); assay: crystal structure; apo HAESA ectodomain crystals soaked in crystallization buffer with 15 mM synthetic peptide; conditions: both partners purified
T1 construct: HAESA, leucine-rich repeat receptor kinase, Arabidopsis thaliana, ectodomain residues 20–620; Synthetic gene, codon optimized; the vector provides an azurocidin signal peptide for secretion; also called HAESA LRR domain; HAESA LRR ectodomain; not shown: Strep, C-terminal, cleaved; 9xHis, C-terminal, cleaved
T1 sequence (looked up): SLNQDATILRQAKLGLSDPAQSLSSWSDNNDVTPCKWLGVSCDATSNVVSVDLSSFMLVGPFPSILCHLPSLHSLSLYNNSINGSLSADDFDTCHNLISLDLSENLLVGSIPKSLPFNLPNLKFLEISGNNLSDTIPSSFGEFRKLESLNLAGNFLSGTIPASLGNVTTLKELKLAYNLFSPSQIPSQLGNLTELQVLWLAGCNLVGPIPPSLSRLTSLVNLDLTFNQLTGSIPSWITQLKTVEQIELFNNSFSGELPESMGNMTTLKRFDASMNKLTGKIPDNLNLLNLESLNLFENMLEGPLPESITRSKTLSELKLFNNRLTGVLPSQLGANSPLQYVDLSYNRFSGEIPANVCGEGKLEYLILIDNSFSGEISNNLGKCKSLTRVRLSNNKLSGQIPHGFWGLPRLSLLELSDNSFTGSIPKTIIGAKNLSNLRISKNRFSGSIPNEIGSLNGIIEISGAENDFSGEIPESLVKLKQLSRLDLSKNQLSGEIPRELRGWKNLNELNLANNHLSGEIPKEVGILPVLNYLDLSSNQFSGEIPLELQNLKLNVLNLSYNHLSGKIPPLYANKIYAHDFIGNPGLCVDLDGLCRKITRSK

[3] = target: T2, Arabidopsis thaliana SERK1 ectodomain (residues 24–213, Asn115→Asp and Asn163→Gln) (Arabidopsis thaliana, UniProt Q94AG2 24-213, Asn115→Asp | Asn163→Gln); assay: ITC; in presence of IDA
T2 sequence: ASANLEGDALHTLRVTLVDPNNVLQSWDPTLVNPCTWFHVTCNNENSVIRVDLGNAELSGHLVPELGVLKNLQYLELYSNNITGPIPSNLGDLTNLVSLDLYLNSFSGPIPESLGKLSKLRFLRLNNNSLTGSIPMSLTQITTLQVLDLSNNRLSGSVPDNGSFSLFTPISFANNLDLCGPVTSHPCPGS

[4] = target: T3, 1:1 HAESA – SERK1 ectodomain mixture (Arabidopsis thaliana, UniProt P47735 20-620; Q94AG2 24-213, Asn115→Asp | Asn163→Gln, N-glycans); assay: ITC; 150 μM wild-type or mutant IDA peptide in the syringe, 10 μM of a 1:1 HAESA – SERK1 protein mixture in the cell; 25°C; 20 mM citric acid pH 5.0, 100 mM NaCl; conditions: both partners purified
T3 construct: HAESA, Arabidopsis thaliana, ectodomain residues 20–620; SERK1, Arabidopsis thaliana, ectodomain residues 24–213; they are the content of the ITC cell into which the peptides were titrated; also called HAESA/SERK1 protein solution; HAESA - SERK1 mixture; source: Trichoplusia ni Tnao38 cells (baculovirus), each ectodomain expressed and purified separately, then mixed 1:1; not …
T3 sequence (looked up) 1: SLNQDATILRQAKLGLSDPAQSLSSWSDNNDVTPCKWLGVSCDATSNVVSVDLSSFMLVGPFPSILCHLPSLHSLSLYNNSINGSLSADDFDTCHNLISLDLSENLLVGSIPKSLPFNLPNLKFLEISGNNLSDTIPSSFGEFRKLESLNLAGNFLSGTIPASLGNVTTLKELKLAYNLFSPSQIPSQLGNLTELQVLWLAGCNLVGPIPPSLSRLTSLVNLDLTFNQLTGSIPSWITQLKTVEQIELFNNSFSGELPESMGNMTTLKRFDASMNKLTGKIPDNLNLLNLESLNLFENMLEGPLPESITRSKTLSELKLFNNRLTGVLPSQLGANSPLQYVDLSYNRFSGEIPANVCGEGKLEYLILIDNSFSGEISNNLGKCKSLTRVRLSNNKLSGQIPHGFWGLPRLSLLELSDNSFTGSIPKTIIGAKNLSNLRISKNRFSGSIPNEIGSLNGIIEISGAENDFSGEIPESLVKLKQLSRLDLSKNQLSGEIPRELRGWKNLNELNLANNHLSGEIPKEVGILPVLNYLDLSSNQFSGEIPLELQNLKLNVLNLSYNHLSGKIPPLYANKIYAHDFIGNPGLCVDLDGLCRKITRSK
T3 sequence (looked up) 2: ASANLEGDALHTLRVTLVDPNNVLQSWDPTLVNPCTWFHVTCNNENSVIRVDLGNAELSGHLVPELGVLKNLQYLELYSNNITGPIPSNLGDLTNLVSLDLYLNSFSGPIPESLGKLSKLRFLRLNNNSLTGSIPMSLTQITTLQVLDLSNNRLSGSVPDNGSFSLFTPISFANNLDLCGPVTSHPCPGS

[5] = tested on: HAESA ectodomain; assay: Isothermal titration calorimetry of SERK1 titrated into HAESA ectodomain only; set-up: species or system Arabidopsis thaliana; conditions: ITC, 25°C, pH 5.0; SERK1 (100 μM) titrated into HAESA (10 μM) in the absence of IDA; n.d. no detectable binding
Text: (§1) Synthetic genes coding for the Arabidopsis thaliana HAESA (residues 20–620) and SERK1 ectodomains (residues 24–213, carrying Asn115→Asp and Asn163→Gln mutations), codon optimized for expression in Trichoplusia ni (Geneart, Germany), were cloned into a modified pBAC-6 transfer vector (Novagen, Billerica, MA), providing an azurocidin signal peptide and a C-terminal TEV (tobacco etch virus protease) cleavable Strep-9xHis tandem affinity tag. Recombinant baculoviruses were generated by co-transfecting transfer vectors with linearised baculovirus DNA (ProFold-ER1, AB vector, San Diego, CA) followed by viral amplification in Spodoptera frugiperda Sf9 cells. […] The purified HAESA ectodomain was incubated with a synthetic IDA peptide (YVPIPPSA-Hyp-SKRHN, the N-terminal Tyr residue was added to allow for peptide quantification by UV absorbance) and the SERK1 ectodomain in 1:1:1.5 molar ratio. […]
(§2) ITC experiments were performed using a Nano ITC (TA Instruments, New Castle, DE) with a 1.0 mL standard cell and a 250 μL titration syringe. […] Molar protein concentrations for SERK1 and HAESA were calculated using their molar extinction coefficient and a molecular weight of 27,551 and 74,896 Da, respectively (determined by MALDI-TOF mass spectrometry). […] Data were analyzed using the NanoAnalyze program (version 2.3.6) as provided by the manufacturer.

[6] = tested on: HAESA - IDA; assay: Isothermal titration calorimetry of SERK1 titrated into HAESA in the presence of IDA; format: binding, Arabidopsis thaliana; conditions: ITC, 25°C, pH 5.0; SERK1 (100 μM) titrated into HAESA (10 μM) in the presence of 150 μM wild-type IDA peptide
Text: as §1, §2

B1: synthetic PKGV-IDA peptide YPKGVPIPPSA-Hyp-SKRHN (peptide)
peptide: YPKGVPIPPSA[Hyp]SKRHN
notes: N-terminal Tyr; INFLORESCENCE DEFICIENT IN ABSCISSION (IDA), Arabidopsis thaliana; Hyp written as P; also called N-terminally extended IDA peptide; source: synthetic peptide
[1]
  Kd: 25 µM
[2]
  binding result: binds

## B2
[3]
  Kd: 0.075 µM

B3: synthetic IDL1 peptide LVPPSG-Hyp-SMRHN (crystal soak) (peptide)
peptide: LVPPSG[Hyp]SMRHN
notes: IDA-LIKE 1 (IDL1), Arabidopsis thaliana; Hyp written as P; source: synthetic peptide
[2]
  binding result: binds

B4: synthetic Lys66/Arg67 → Ala mutant IDA peptide (peptide)
peptide: YVPIPPSA[Hyp]SAAHN
notes: INFLORESCENCE DEFICIENT IN ABSCISSION (IDA), Arabidopsis thaliana; as the IDA stretch of m3 with the two changes; also called IDA K66A/R67A; IDA K66A/R66A; source: synthetic peptide
[4]
  fold reduced binding affinity against wild-type IDA: 10 fold

B5: synthetic IDA peptide PIPPSA-Hyp-SKRHN (crystal soak) (peptide)
peptide: PIPPSA[Hyp]SKRHN
notes: INFLORESCENCE DEFICIENT IN ABSCISSION (IDA), Arabidopsis thaliana, residues 58-69; Hyp written as P; also called dodecamer peptide; source: synthetic peptide
[2]
  binding result: binds

B6: SERK1: LRR ectodomain of Arabidopsis SERK1 co-receptor (residues 24–213, Asn115→Asp, Asn163→Gln), expressed in insect cells (protein)
chain: ASANLEGDALHTLRVTLVDPNNVLQSWDPTLVNPCTWFHVTCNNENSVIRVDLGNAELSGHLVPELGVLKNLQYLELYSNNITGPIPSNLGDLTNLVSLDLYLNSFSGPIPESLGKLSKLRFLRLNNNSLTGSIPMSLTQITTLQVLDLSNNRLSGSVPDNGSFSLFTPISFANNLDLCGPVTSHPCPGS
modifications: left off: Strep, C-terminal, cleaved | 9xHis, C-terminal, cleaved
notes: LRR ectodomain of Arabidopsis SERK1 co-receptor (residues 24–213, Asn115→Asp, Asn163→Gln), expressed in insect cells
[5]
  Kd of SERK1, protein in cell: HAESA: no detectable interaction
[6]
  Kd of SERK1, protein in cell: HAESA - IDA: mid-nanomolar range
